Holding throughout (test): EMSA
Background: A gel shift assay detects complexes by their altered migration in electrophoresis.

The target of one data set is T1, GST-p52 (WT);GST-ETS1 (Homo sapiens;Homo sapiens, UniProt Q00653;P14921 1-454;1-441, |).
T1 sequence 1: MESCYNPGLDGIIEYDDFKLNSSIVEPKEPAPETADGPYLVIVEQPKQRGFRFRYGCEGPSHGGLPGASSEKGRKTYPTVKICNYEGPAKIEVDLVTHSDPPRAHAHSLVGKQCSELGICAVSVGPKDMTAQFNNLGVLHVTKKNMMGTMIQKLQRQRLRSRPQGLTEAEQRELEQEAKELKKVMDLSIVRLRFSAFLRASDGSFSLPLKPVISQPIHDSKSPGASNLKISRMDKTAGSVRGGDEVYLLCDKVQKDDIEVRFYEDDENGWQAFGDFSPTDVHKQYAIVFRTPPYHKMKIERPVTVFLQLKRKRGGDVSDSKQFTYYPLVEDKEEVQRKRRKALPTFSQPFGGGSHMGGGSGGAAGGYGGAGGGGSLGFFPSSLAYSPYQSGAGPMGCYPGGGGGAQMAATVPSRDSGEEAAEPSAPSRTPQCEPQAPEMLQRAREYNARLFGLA
T1 sequence 2: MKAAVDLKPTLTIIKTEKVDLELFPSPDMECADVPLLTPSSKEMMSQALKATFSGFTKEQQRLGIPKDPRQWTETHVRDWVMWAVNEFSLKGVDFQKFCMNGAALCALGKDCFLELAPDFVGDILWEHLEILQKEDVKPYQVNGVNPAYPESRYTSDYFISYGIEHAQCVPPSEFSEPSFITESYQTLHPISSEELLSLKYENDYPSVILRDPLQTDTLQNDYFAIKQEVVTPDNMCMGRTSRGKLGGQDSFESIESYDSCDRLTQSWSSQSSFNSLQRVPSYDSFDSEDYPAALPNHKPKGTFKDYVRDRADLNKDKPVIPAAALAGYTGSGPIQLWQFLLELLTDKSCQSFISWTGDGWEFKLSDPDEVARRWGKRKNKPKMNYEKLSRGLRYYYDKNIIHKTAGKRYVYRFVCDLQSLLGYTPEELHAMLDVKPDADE

For data set [1], the target named is T2, GST-ETS1 (Homo sapiens, UniProt P14921 1-441).
T2 sequence: T1 sequence 2

The target of data set [2] is T3, GST-p52 (WT) (Homo sapiens, UniProt Q00653 1-454).
T3 sequence: T1 sequence 1

Data set [3] deals with T3, GST-p52 (WT). This is another data set of the same source.
Data set [4] addresses T2, GST-ETS1. The source holds these as a separate data set.

Consider two molecules from article PMC4772727.

Read-outs that look alike come from different tables or passages of the source.

B1: C250T TERT promoter probe (dsDNA)
DNA 1: GTCCCGACCCCTTCCGGGTCCCCGGC
DNA 2: GCCGGGGACCCGGAAGGGGTCGGGAC
As to B1, the binding result with GST-p52 (WT);GST-ETS1, in the data set with GST-ETS1 [1] and in the data set with GST-p52 (WT) [2] was “binds” each time.

B2: WT TERT promoter probe (dsDNA)
DNA 1: GTCCCGACCCCTCCCGGGTCCCCGGC
DNA 2: GCCGGGGACCCGGGAGGGGTCGGGAC
For the molecule B2, the binding result with GST-p52 (WT) [3] is “binds”; in the data set with GST-ETS1 [4], “no binding”.
